Reference: the supplement of paper PMC11246515
± gives the standard deviation of the averaged measurements.

Experiment: total protein half-life in vivo (active degradation + dilution); higher = more stable protein
[1] = E. coli NCM3722 delta-clpP delta-lon delta-hslV, growth: N-lim chemostat, doubling time 6 h
[2] = E. coli NCM3722 delta-clpP, growth: N-lim chemostat, doubling time 6 h
[3] = E. coli NCM3722 delta-hslV, growth: N-lim chemostat, doubling time 6 h
[4] = E. coli NCM3722 delta-lon, growth: N-lim chemostat, doubling time 6 h
[5] = E. coli NCM3722 delta-smpB, growth: N-lim chemostat, doubling time 6 h
[6] = wild type E. coli NCM3722, growth: C-lim chemostat, doubling time 3 h
[7] = wild type E. coli NCM3722, growth: C-lim chemostat, doubling time 6 h
[8] = wild type E. coli NCM3722, growth: C-lim chemostat, doubling time 12 h
[9] = wild type E. coli NCM3722, growth: N-lim chemostat, doubling time 6 h
[10] = wild type E. coli NCM3722, growth: N-lim chemostat, doubling time 12 h
[11] = wild type E. coli NCM3722, growth: P-lim chemostat, doubling time 6 h
[12] = wild type E. coli NCM3722, growth: P-lim chemostat, doubling time 12 h

| Sequence | total protein half-life in vivo [1] | total protein half-life in vivo [2] | total protein half-life in vivo [3] | total protein half-life in vivo [4] | total protein half-life in vivo [5] | total protein half-life in vivo [6] | total protein half-life in vivo [7] | total protein half-life in vivo [8] | total protein half-life in vivo [9] | total protein half-life in vivo [10] | total protein half-life in vivo [11] | total protein half-life in vivo [12] |
| --- | --- | --- | --- | --- | --- | --- | --- | --- | --- | --- | --- | --- |
| MITIDGNGAVASVAFRTSEVIAIYPITPSSTMAEQADAWAGNGLKNVWGDTPRVVEMQSEAGAIATVHGALQTGALSTSFTSSQGLLLMIPTLYKLAGELTPFVLHVAARTVATHALSIFGDHSDVMAVRQTGCAMLCAANVQEAQDFALISQIATLKSRVPFIHFFDGFRTSHEINKIVPLADDTILDLMPQVEIDAHRARALNPEHPVIRGTSANPDTYFQSREATNPWYNAVYDHVEQAMNDFSAATGRQYQPFEYYGHPQAERVIILMGSAIGTCEEVVDELLTRGEKVGVLKVRLYRPFSAKHLLQALPGSVRSVAVLDRTKEPGAQAEPLYLDVMTALAEAFNNGERETLPRVIGGRYGLSSKEFGPDCVLAVFAELNAAKPKARFTVGIYDDVTNLSLPLPENTLPNSAKLEALFYGLGSDGSVSATKNNIKIIGNSTPWYAQGYFVYDSKKAGGLTVSHLRVSEQPIRSAYLISQADFVGCHQLQFIDKYQMAERLKPGGIFLLNTPYSADEVWSRLPQEVQAVLNQKKARFYVINAAKIARECGLAARINTVMQMAFFHLTQILPGDSALAELQGAIAKSYSSKGQDLVERNWQALALARESVEEVPLQPVNPHSANRPPVVSDAAPDFVKTVTAAMLAGLGDALPVSALPPDGTWPMGTTRWEKRNIAEEIPIWKEELCTQCNHCVAACPHSAIRAKVVPPEAMENAPASLHSLDVKSRDMRGQKYVLQVAPEDCTGCNLCVEVCPAKDRQNPEIKAINMMSRLEHVEEEKINYDFFLNLPEIDRSKLERIDIRTSQLITPLFEYSGACSGCGETPYIKLLTQLYGDRMLIANATGCSSIYGGNLPSTPYTTDANGRGPAWANSLFEDNAEFGLGFRLTVDQHRVRVLRLLDQFADKIPAELLTALKSDATPEVRREQVAALRQQLNDVAEAHELLRDADALVEKSIWLIGGDGWAYDIGFGGLDHVLSLTENVNILVLDTQCYSNTGGQASKATPLGAVTKFGEHGKRKARKDLGVSMMMYGHVYVAQISLGAQLNQTVKAIQEAEAYPGPSLIIAYSPCEEHGYDLALSHDQMRQLTATGFWPLYRFDPRRADEGKLPLALDSRPPSEAPEETLLHEQRFRRLNSQQPEVAEQLWKDAAADLQKRYDFLAQMAGKAEKSNTD | 4.62 ± 0.54 h | 3.16 ± 0.26 h | 2.72 ± 0.21 h | 2.87 ± 0.075 h | 2.17 ± 0.18 h | 2.14 ± 0.34 h | 3.35 ± 0.38 h | 5.06 ± 0.26 h | 2.57 ± 0.12 h | 3.64 ± 0.31 h | 3.77 ± 0.17 h | 6.3 ± 0.33 h |
| MNDIAHNLAQVRDKISAAATRCGRSPEEITLLAVSKTKPASAIAEAIDAGQRQFGENYVQEGVDKIRHFQELGVTGLEWHFIGPLQSNKSRLVAEHFDWCHTIDRLRIATRLNDQRPAELPPLNVLIQINISDENSKSGIQLAELDELAAAVAELPRLRLRGLMAIPAPESEYVRQFEVARQMAVAFAGLKTRYPHIDTLSLGMSDDMEAAIAAGSTMVRIGTAIFGARDYSKK | 4.54 ± 0.38 h | 5.38 ± 2.8 h | 4.27 ± 0.37 h | 5.68 ± 1.1 h | 4.24 ± 0.45 h | 3.39 ± 0.11 h | 5.71 ± 0.17 h | 8.8 ± 1 h | 4.33 ± 0.43 h | 7.53 ± 0.85 h | 5.95 ± 0.28 h | 11.1 ± 0.35 h |
| MDIIGGQHLRQMWDDLADVYGHKTALICESSGGVVNRYSYLELNQEINRTANLFYTLGIRKGDKVALHLDNCPEFIFCWFGLAKIGAIMVPINARLLCEESAWILQNSQACLLVTSAQFYPMYQQIQQEDATQLRHICLTDVALPADDGVSSFTQLKNQQPATLCYAPPLSTDDTAEILFTSGTTSRPKGVVITHYNLRFAGYYSAWQCALRDDDVYLTVMPAFHIDCQCTAAMAAFSAGATFVLVEKYSARAFWGQVQKYRATVTECIPMMIRTLMVQPPSANDQQHRLREVMFYLNLSEQEKDAFCERFGVRLLTSYGMTETIVGIIGDRPGDKRRWPSIGRVGFCYEAEIRDDHNRPLPAGEIGEICIKGIPGKTIFKEYFLNPQATAKVLEADGWLHTGDTGYRDEEDFFYFVDRRCNMIKRGGENVSCVELENIIAAHPKIQDIVVVGIKDSIRDEAIKAFVVLNEGETLSEEEFFRFCEQNMAKFKVPSYLEIRKDLPRNCSGKIIRKNLK | 5.31 h | – | 6.57 h | – | 3.61 ± 0.13 h | – | – | 11.3 h | 4.98 h | 7.9 h | – | 10.7 ± 0.12 h |
| MAHPPRLNDDKPVIWTVSVTRLFELFRDISLEFDHLANITPIQLGFEKAVTYIRKKLANERCDAIIAAGSNGAYLKSRLSVPVILIKPSGYDVLQALAKAGKLTSSIGVVTYQETIPALVAFQKTFNLRLDQRSYITEEDARGQINELKANGTEAVVGAGLITDLAEEAGMTGIFIYSAATVRQAFSDALDMTRMSLRHNTHDATRNALRTRYVLGDMLGQSPQMEQVRQTILLYARSSAAVLIEGETGTGKELAAQAIHREYFARHDARQGKKSHPFVAVNCGAIAESLLEAELFGYEEGAFTGSRRGGRAGLFEIAHGGTLFLDEIGEMPLPLQTRLLRVLEEKEVTRVGGHQPVPVDVRVISATHCNLEEDMQQGRFRRDLFYRLSILRLQLPPLRERVADILPLAESFLKVSLAALSAPFSAALRQGLQASETVLLHYDWPGNIRELRNMMERLALFLSVEPTPDLTPQFMQLLLPELARESAKTPAPRLLTPQQALEKFNGDKTAAANYLGISRTTFWRRLKS | 4.26 ± 0.052 h | 2.4 ± 0.6 h | – | 2.71 h | 2.277 ± 0.021 h | 2.18 ± 0.55 h | 4.02 ± 0.54 h | 5.89 ± 0.42 h | 2.53 ± 0.25 h | 4.31 h | – | – |
| MKRNTKIALVMMALSAMAMGSTSAFAHGGHGMWQQNAAPLTSEQQTAWQKIHNDFYAQSSALQQQLVTKRYEYNALLAANPPDSSKINAVAKEMENLRQSLDELRVKRDIAMAEAGIPRGAGMGMGYGGCGGGGHMGMGHW [P0AAA9] | – | – | – | – | – | – | – | – | – | 13 h | – | – |
| MATTHLDVCAVVPAAGFGRRMQTECPKQYLSIGNQTILEHSVHALLAHPRVKRVVIAISPGDSRFAQLPLANHPQITVVDGGDERADSVLAGLKAAGDAQWVLVHDAARPCLHQDDLARLLALSETSRTGGILAAPVRDTMKRAEPGKNAIAHTVDRNGLWHALTPQFFPRELLHDCLTRALNEGATITDEASALEYCGFHPQLVEGRADNIKVTRPEDLALAEFYLTRTIHQENT | 4.65 ± 0.39 h | 5.096 ± 0.047 h | 5.2 ± 1.2 h | 4.6 ± 2.6 h | 4.66 ± 0.47 h | 3.29 ± 0.43 h | 6.7 ± 1.2 h | 10.6 ± 1.2 h | 5.66 ± 1.1 h | 8.34 ± 2 h | – | 11.96 ± 0.058 h |
